Experiments:
[1] = biological target: endogenous MyBP-C of homozygous soleus tissue (with TEV site and SpyTag), uncut
[2] = biological target: T1, Spy-C cMyBP-C (cMyBP-C of Spy-C mice with a TEV protease recognition site and a SpyTag sequence in the linker between domains C7 and C8), uncut
T1 chain: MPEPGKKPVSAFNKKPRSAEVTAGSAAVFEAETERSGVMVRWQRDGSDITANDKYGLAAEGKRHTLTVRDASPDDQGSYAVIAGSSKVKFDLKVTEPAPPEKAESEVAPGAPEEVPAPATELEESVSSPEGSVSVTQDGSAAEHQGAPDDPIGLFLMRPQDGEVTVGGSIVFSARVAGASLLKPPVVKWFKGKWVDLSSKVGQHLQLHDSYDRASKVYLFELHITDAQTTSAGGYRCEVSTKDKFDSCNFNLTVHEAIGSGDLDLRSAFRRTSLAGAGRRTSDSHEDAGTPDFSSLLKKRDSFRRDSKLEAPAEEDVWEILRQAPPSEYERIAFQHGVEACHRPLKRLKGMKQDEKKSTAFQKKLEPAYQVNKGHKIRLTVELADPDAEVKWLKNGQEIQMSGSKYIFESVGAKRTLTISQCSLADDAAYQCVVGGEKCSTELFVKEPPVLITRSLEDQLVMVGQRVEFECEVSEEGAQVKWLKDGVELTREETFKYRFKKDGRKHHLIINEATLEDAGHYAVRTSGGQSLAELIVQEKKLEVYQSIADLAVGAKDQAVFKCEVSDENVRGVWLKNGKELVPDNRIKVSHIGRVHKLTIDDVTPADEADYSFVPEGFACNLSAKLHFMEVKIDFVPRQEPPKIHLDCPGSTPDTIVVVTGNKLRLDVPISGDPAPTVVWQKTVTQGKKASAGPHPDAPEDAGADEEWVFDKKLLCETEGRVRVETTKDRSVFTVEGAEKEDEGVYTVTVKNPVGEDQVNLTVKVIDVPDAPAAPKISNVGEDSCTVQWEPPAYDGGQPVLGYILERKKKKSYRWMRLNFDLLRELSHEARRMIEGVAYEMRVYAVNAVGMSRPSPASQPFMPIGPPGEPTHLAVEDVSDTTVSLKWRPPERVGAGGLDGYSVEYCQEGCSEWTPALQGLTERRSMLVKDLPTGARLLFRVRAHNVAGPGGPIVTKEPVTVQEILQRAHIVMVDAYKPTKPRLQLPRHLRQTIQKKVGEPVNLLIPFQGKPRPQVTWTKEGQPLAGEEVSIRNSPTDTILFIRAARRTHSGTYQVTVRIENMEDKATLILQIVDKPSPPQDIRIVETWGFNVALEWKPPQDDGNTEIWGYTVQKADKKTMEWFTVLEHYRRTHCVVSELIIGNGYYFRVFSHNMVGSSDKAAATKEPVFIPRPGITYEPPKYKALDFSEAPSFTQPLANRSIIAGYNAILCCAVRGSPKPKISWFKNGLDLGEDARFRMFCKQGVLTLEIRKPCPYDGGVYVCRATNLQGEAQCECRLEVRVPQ

[3] = biological target: endogenous MyBP-C in wild type soleus tissue

B1: TEV protease (protein)
chain: GESLFKGPRDYNPISSTICHLTNESDGHTTSLYGIGFGPFIITNKHLFRRNNGTLLVQSLHGVFKVKNTTTLQQHLIDGRDMIIIRMPKDFPPFPQKLKFREPQREERICLVTTNFQTKSMSSMVSDTSCTFPSSDGIFWKHWIQTKDGQCGSPLVSTRDGFIVGIHSASNFTNTNNYFTSVPKNFMELLTNQEAQQWVSGWRLNADSVLWGGHKVFMSKPEEPFQPVKEATQLMN
- decrease in molecular weight on western blot [1]: endogenous MyBP-C domains C1-C7 in homozygous tissue are cleaved with TEV protease (TEVp), shown by a decrease in molecular weight
- cleavage in permeabilized myocytes [2]: Spy-C cMyBP-C was cleaved at the TEV site
- size on western blot [3]: the size of endogenous MyBP-C in wild type tissue is unaffected by TEVp, washing and addition of replacement protein
